{
  "source": "patent US8263326B2",
  "about": "“Compounds and methods for modulating activation of NF-κB” (Signal Pharmaceuticals, LLC, priority 1998, dated 2012)",
  "key": {"[1]": {"target": "T1, β-TrCP (Homo sapiens, UniProt Q9Y297)", "T1 construct": "made in house; host or cells: transfected 293 (293T) cells, immunoprecipitated through FLAG", "T1 sequence (P63208 whole entry partner, one chain of several)": "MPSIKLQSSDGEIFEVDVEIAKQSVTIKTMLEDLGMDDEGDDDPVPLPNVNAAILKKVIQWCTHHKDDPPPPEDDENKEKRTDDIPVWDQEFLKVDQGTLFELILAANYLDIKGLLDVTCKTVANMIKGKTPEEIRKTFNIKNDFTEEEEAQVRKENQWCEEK", "assay": "Peptide competition of β-TrCP binding to pIκBα", "conditions": "FIG. 11B", "protocol": "(§1) FIGS. 11A-11C are Western blots illustrating binding and ubiquitination specificity of E3 ubiquitin ligase family members. Within these figures, mβ-TrCP indicates mouse β-TrCP, hβ-TrCP indicates human β-TrCP, Δβ-TrCP indicates human β-TrCP with a deletion of the F box region and Slimb indicates the Drosophila Slimb protein. FIG. 11A illustrates selective binding to pIκBα. Proteins were immunoprecipitated through a FLAG epitope from transfected 293T cells, incubated with immunopurified IκBα/NF-κB complex, which had been treated (−/+IKK) as indicated and the bound material was analyzed by Western blotting with the indicated antibodies. […] FIG. 11C illustrates in vitro ubiquitination of pIκBα by the E3 family member proteins. Immunopurified FLAG-tagged proteins were incubated with ^35 S-labeled IκBα/NF-κB complexes, treated (−/+IKK) as indicated and subject to ubiquitination in the presence of ATPγS, ubiquitin. E1 and UBC5C. The IκBα substrate (composed of full-length and two degradation products), pIκBα-polyubiquitin conjugates and molecular size markers are indicated on the left.\nThe ability of these proteins to bind pIκBα specifically and assist in its ubiquitination was examined in a cell-free system. […] The bound material was analyzed by Western blotting with anti-IκBα and anti-FLAG antibodies. […]"}, "[2]": {"tested_on": "pIκBα-associated ubiquitin-ligase", "assay": "In vitro ubiquitination of pIκBα/NF-κB complex immunopurified from TNFα-stimulated HeLa cells with E1 and UBC5C", "format": "biochemical, human", "conditions": "Bestatin 40 μg/ml, FIG. 5", "protocol": "To further study the recruitment of components of the ubiquitin machinery by phosphorylated IκBα-complexes, pIκBα/NF-κB complexes were purified from proteasome inhibited, TNF-α stimulated HeLa cells, and their ubiquitination potential was evaluated. HeLa cells were pre-incubated with the proteasome inhibitor ALLN (150 μM) for 1 hour and stimulated for 10 minutes with TNFα. […]\nThe immunopurified fraction was supplemented with various components of the ubiquitin system and subjected to in vitro ubiquitination. […] The reaction mix was then boiled in SDS-buffer and the sample analyzed by SDS-PAGE (8.5%) and phospho-imaging.\nTo determine the source of the IκBα-conjugates, the ubiquitination reactions were performed in the presence of a pIκBα peptide (pp12; CDRHDS[PO3]GLDS[PO3]; SEQ ID NO:22) (lane 7) or a serine/glutamic-acid substituted IκBα peptide (p12S/E) (lane 8). Both peptides were synthetic, purchased from Alfa-Diagnostic, Inc., and then HPLC-purified, analyzed by mass spectrometry, verified for the predicted structure and proven to be over 85% pure. […]"}, "[3]": {"tested_on": "ubiquitin-ligase activity associated with the pIκB-complex", "assay": "Recruitment of ubiquitin-ligase activity from HeLa lysate to IKK2-EE phosphorylated IκBα/NF-κB complex", "format": "biochemical, human", "conditions": "peptide included in incubation with HeLa lysate, FIG. 6", "protocol": "Following immunoprecipitation of ^35S-labeled IκBα/NF-κB complexes from a non-stimulated HeLa lysate previously incubated with recombinant ^35S-labeled IκBα, the complexes were phosphorylated by the recombinant IKK2-EE, eluted with the p65 cognate peptide and subjected to in vitro ubiquitination. After incubation with IKK2-EE, nearly all of the ^35S-IκB was phosphorylated. […] Therefore, IκB phosphorylation by IKK was not sufficient to promote its ubiquitination in the presence of E1 and E2. Conceivably, pIκBα ubiquitination requires an additional component of the HeLa lysate that was not co-immunopurified from non-stimulated cells.\nTo confirm this hypothesis, immuno-bound IκBα/NF-κB complexes were incubated with a non-stimulated HeLa lysate, either directly or following IKK2-EE phosphorylation, washed extensively with high-salt buffer and eluted with the p65 peptide. Indeed, incubation of the phosphorylated IκB complexes (FIG. 6 lane 3), but not of the non-phosphorylated ones (lane 1), with the HeLa lysate, provided the pIκB-ligase component(s) necessary for pIκBα conjugation. No signal was obtained when E1 or E2 were omitted from the reaction, confirming that the signal at the top of the gel represents poly-ubiquitin IκBα-conjugates (lanes 5, 6). […]"}, "[4]": {"tested_on": "pIκBα-associated proteins (p54, p58, p61, 64 kD)", "assay": "Association of 35S-labeled HeLa lysate proteins with immuno-bound pIκBα/NF-κB complex (SDS-PAGE, autoradiography)", "format": "binding, human", "conditions": "peptide added to radiolabeled HeLa lysate, FIG. 7B", "protocol": "HeLa extract (250 mg) was incubated with 250 μl anti-p65 immunobeads. Following four washes in buffer A (1M KCl, 0.5% NP40, 50 mM Tris buffer pH 7.6, 1 mM DTT) and one wash in buffer B (50 mM Tris buffer, pH 7.6, 1 mM DTT), half the beads were subject to in vitro phosphorylation with IKK and half underwent mock-phosphorylation. The beads were washed twice in buffer A and once in buffer B, agitated with 100 mg HeLa extract in the presence of 1 μm okadaic acid for 30 min at 25° C., washed four times with buffer A, once in buffer A and eluted with 1 mg/ml p65 peptide. A similar experiment was performed with 10 mg ^35 S-metabolically-labeled HeLa cell lysate (100 μCi/ml Met/Cys for 8 hours) and 25 μl p65-immunobeads. Eluate-fractions derived from both the hot and cold lysates were mixed, boiled in SDS-sample buffer and analyzed by 7.5% SDS-PAGE and autoradiography. Gel slices corresponding to the autoradiogram signals were excised and their protein-bands sequenced by mass-spectrometry, as described below.\nTo circumvent the possible masking of the putative pIκB-ubiquitin ligase, we replaced the ligase source with ^35S-biosynthetically-labeled HeLa lysate and traced the IκBα-associated proteins by SDS-PAGE analysis and autoradiography (FIG. 7B). In parallel, the various fractions were tested for their ubiquitin-ligase capacity. […]"}, "[5]": {"target": "T2, pIκBα (Homo sapiens, UniProt P25963)", "T2 construct": "The IκBα/NF-κB complex was immunopurified from HeLa cells; endogenous in cells; host or cells: HeLa cells", "T2 sequence (P25963 whole entry)": "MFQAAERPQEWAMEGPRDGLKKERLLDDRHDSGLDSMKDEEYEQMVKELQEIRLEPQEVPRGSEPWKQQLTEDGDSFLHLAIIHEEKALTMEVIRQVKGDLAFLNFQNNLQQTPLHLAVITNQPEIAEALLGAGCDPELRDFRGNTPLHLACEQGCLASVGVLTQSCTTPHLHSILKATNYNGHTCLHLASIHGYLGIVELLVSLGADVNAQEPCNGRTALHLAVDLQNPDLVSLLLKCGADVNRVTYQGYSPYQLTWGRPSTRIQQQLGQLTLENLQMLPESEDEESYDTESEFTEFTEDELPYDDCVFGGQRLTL", "T2 sequence (Q04206 whole entry partner)": "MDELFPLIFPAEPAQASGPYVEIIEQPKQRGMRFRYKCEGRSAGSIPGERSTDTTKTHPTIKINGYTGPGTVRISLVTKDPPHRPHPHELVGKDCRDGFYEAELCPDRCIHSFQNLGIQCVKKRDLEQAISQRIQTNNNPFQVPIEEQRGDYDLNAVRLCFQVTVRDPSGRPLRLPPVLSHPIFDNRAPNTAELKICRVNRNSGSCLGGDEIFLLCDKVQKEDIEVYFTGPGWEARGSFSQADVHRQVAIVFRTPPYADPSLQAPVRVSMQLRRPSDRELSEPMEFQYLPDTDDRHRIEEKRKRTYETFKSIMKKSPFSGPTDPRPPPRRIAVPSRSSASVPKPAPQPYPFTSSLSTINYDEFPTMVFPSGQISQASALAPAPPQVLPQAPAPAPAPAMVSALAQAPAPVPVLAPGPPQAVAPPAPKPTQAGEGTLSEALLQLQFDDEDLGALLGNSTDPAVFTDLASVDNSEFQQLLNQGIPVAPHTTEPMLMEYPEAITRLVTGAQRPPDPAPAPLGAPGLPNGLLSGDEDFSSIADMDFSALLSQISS", "assay": "Binding of immobilized FLAG-tagged E3 family members to IκBα/NF-κB complex (Western blot)", "conditions": "FIG. 11A", "protocol": "as §1\nThe ability of these proteins to bind pIκBα specifically and assist in its ubiquitination was examined in a cell-free system. The IκBα/NF-κB complex was immunopurified from HeLa cells and the immune complex was either phosphorylated with IKK2-EE or mock-phosphorylated as described above. It was then incubated with the following immobilized FLAG-tagged E3 family members immunoprecipitated from transfected 293 cells: mouse β-TrCP (mβ-TrCP), human β-TrCP (hβ-TrCP), human β-TrCP with a deletion of the F box region residues 122-168 (Δβ-TrCP) and the Drosophila Slimb protein. The bound material was analyzed by Western blotting with anti-IκBα and anti-FLAG antibodies. […] Furthermore, β-TrCP binding was abrogated by a peptide representing the pIκBα recognition motif (pp10; DRHDS(PO3)GLDS(PO3)M (SEQ ID NO:29); see FIG. 11B, lane 3), but not by the control peptide (lane 4), specifying the site of pIκBα recognition of the conserved DS(PO3)GLDS(PO3) (SEQ ID NO:30) sequence."}, "[6]": {"tested_on": "NF-κB activation in Jurkat cells", "assay": "κB-dependent luciferase assay in P/I-stimulated Jurkat cells", "format": "cell-based", "conditions": "transient over-expression in stimulated Jurkat cells", "description": "FIGS. 12A and 12B illustrate inhibition of IκBα degradation and NF-κB activation by overexpression of Δβ-TrCP, a dominant negative molecule. FIG. 12A is a graph depicting the results of a κB-dependent luciferase assay in P/I-stimulated Jurkat cells transfected with κB-Luc reporter plasmid and the indicated expression vectors (i.e., from left to right, vector alone, vector encoding human β-TrCP, vector encoding human β-TrCP with a deletion of the F box region and vector encoding Drosophila Slimb protein). NF-κB activity is shown as relative (fold) luciferase activity, the non-stimulated empty FLAG vector being the reference (single-fold). FIG. 12B depicts the results of western blot analysis of IκBα of phorbol-ester and Ca^++ ionophore [P/I]-stimulated and non-stimulated Jurkat cells transfected with an empty FLAG vector or Δβ-TrCP. The post-stimulation interval (min) is indicated."}},
  "note": "Non-standard residues stand in square brackets, D forms with d. No end group written: not given here. pS = N[C@@H](COP(=O)(O)O)C(=O)O",
  "data": [
    {"molecule": "pp10: peptide representing the pIκBα recognition motif, DRHDS(PO3)GLDS(PO3)M, SEQ ID NO:29 (DRHD[pS]GLD[pS]M; listed as Homo sapiens)", "values": [
      {"measurement": "effect of peptide on β-TrCP-pIκBα binding", "setting": "[1]", "value": "abrogated"}
    ]},
    {"molecule": "pp12: pIκBα peptide CDRHDS[PO3]GLDS[PO3]; SEQ ID NO:22 (CDRHD[pS]GLD[pS]; listed as Homo sapiens)", "values": [
      {"measurement": "formation of polyubiquitin-IκBα conjugates", "setting": "[2]", "value": "abolished"},
      {"measurement": "ubiquitin-ligase activity associated with the pIκB-complex", "setting": "[3]", "value": "abrogated"},
      {"measurement": "association of distinctive 35S-protein bands with pIκBα", "setting": "[4]", "value": "three bands were eliminated"}
    ]},
    {"molecule": "hβ-TrCP: FLAG-tagged human β-TrCP, E3 family member (protein, left off: small tags and cut ends, FLAG-tagged human β-TrCP, E3 family member) MDPAEAVLQEKALKFMNSSEREDCNNGEPPRKIIPEKNSLRQTYNSCARLCLNQETVCLASTAMKTENCVAKTKLANGTSSMIVPKQRKLSASYEKEKELCVKYFEQWSESDQVEFVEHLISQMCHYQHGHINSYLKPMLQRDFITALPARGLDHIAENILSYLDAKSLCAAELVCKEWYRVTSDGMLWKKLIERMVRTDSLWRGLAERRGWGQYLFKNKPPDGNAPPNSFYRALYPKIIQDIETIESNWRCGRHSLQRIHCRSETSKGVYCLQYDDQKIVSGLRDNTIKIWDKNTLECKRILTGHTGSVLCLQYDERVIITGSSDSTVRVWDVNTGEMLNTLIHHCEAVLHLRFNNGMMVTCSKDRSIAVWDMASPTDITLRRVLVGHRAAVNVVDFDDKYIVSASGDRTIKVWNTSTCEFVRTLNGHKRGIACLQYRDRLVVSGSSDNTIRLWDIECGACLRVLEGHEELVRCIRFDNKRIVSGAYDGKIKVWDLVAALDPRAPAGTLCLRTLVEHSGRVFRLQFDEFQIVSSSHDDTILIWDFLNDPAAQAEPPRSPSRTYTYISR", "values": [
      {"measurement": "relative binding of IκBα / pIκBα", "setting": "[5]; comparison between family members", "value": "far better than the highly homologous Drosophila protein"},
      {"measurement": "binding to IKK-phosphorylated versus mock-phosphorylated IκBα", "setting": "[5]; FLAG-tagged protein from transfected 293 cells", "value": "exclusively bound IKK-phosphorylated, but not mock-phosphorylated, IκBα"},
      {"measurement": "activation of NF-κB", "setting": "[6]", "value": "not inhibitory"}
    ]}
  ]
}
